In US20050074865A1:

Molecular target: recombinant human TNFα (RDI) (human) (UniProt P01375)
Test: cell-based or functional assay

Sequence of recombinant human TNFα (RDI) (human) (P01375 77-233 limits assumed): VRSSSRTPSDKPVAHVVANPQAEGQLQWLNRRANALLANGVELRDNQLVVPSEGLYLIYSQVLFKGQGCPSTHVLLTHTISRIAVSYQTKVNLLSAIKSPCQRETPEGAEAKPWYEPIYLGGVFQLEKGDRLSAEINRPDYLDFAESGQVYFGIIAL

B1: MMP7 (enzyme, UniProt P09237 95-267, looked up, species assumed)
Matrilysin: YSLFPNSPKWTSKVVTYRIVSYTRDLPHITVDRLVSKALNMWGKEIPLHFRKVVWGTADIMIGFARGAHGDSYPFDGPGNTLAHAFAPGTGLGGDAHFDEDERWTDGSSLGINFLYAATHELGHSLGMGHSSDPNAVMYPTYGNGDPQNFKLSQDDIKGIQKLYGKRSNSRKK
Question: Which results are given for B1?
Answer: L929 cell survival at the dilution equivalent to ~600 pg/ml TNFα (reference standard: 10% survival): 40 % survival; log reduction in TNFα activity at the 50% survival level, L929 cytotoxicity bioassay after overnight digestion: 1.22 log
